How the values were obtained:
Test in all cases: purified protein
Settings in all cases: pH 7.5; 30.0 °C
[1] = tested on: C=C(O[C@@H]1C=C(C(=O)O)C=C[C@H]1O)C(=O)O; type: biochemical, Escherichia coli
[2] = tested on: C=C(O[C@H]1C=CC=C(C(=O)O)[C@@H]1O)C(=O)O
[3] = tested on: C=C(O[C@@H]1C=C(C(=O)O)C=C[C@H]1O)C(=O)O

| Substance | Km [1] [µM] | Km [2] [µM] | kcat/Km [2] [M⁻¹ s⁻¹] | Km [3] [µM] |
| --- | --- | --- | --- | --- |
| (Escherichia coli K-12) | 240 |  |  |  |
| (Mycobacterium tuberculosis H37Rv) |  | 200 ± 30 | 4.4 ± 0.4 | 170 ± 16 |
| (Pseudomonas aeruginosa PAO1) |  |  |  | 41 ± 5 |
